Experimental data taken from article PMC10250246 (Nucleic Acids Research, 2023).
Where a chain is given by its changes, count along the chain named. Names and notes keep the numbering of the source.

T1: 10xHis-mRuby2-Spt6 (239-1451) (S. cerevisiae, UniProt P23615 239-1451)
T1 sequence (looked up): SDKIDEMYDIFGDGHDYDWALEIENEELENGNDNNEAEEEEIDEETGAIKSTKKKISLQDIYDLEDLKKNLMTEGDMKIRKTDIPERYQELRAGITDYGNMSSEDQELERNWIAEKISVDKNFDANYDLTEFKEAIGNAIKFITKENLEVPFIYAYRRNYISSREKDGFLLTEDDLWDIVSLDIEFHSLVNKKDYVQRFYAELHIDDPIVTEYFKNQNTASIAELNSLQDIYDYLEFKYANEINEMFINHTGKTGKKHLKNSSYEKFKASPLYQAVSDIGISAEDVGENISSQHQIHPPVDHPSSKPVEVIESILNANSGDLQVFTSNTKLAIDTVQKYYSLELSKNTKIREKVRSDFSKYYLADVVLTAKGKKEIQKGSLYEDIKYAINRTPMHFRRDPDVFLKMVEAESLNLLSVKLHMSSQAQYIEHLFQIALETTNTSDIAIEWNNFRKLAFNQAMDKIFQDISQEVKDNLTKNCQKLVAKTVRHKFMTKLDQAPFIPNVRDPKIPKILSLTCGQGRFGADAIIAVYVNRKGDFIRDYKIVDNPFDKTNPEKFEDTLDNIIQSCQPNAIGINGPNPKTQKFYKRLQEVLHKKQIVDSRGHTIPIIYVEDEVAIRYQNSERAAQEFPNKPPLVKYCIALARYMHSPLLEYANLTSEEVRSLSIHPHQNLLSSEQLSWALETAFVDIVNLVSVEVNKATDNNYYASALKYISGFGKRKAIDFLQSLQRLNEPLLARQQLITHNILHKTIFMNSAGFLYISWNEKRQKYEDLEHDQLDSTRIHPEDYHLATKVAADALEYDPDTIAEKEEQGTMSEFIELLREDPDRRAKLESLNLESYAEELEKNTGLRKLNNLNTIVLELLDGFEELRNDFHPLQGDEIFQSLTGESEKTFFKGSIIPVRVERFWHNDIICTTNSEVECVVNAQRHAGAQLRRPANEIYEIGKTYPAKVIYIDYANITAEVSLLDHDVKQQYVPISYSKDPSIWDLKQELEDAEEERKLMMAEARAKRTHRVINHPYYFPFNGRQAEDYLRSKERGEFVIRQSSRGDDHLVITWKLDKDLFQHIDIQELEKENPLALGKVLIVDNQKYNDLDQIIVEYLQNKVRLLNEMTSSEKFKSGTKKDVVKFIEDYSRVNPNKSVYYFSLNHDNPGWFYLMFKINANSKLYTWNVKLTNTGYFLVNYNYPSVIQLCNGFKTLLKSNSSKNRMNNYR

T2: Spt6 (239-1451) (S. cerevisiae, UniProt P23615 239-1451)
T2 sequence (looked up): T1 sequence (looked up)

B1: 10xHis-mClover-Cdc73 (natural protein, S. cerevisiae, UniProt Q06697 1-393, looked up)
chain: MANSLDRLREHLKNGDKLVLKNNEGQSTDDITKATMVETLSSDGSTQDSFPLNEETEIEIDGSLVQLRIIVHCWMNKDSSAADYLADCQNKQLTNVSFLQRTDLINWLSGNTESSQYLKAPGQKGETSDKVDIENKTLAGELSTVKSTTSASLENDSEVSDPVVVETMKHERILVDHNSALRGAKPINFGYLIKDAELKLVQSIKGSLRGSKLPPGHKGAHGRISKTNGSSGGPRKDPIILIPSAASSILTVANIKQFLLESKYVNPRNLPSVPNGLVNIEKNFERISRPIRFIIVDNTRMFTKPEYWDRVVAIFTTGHTWQFNNYQWNSPQELFQRCKGYYFHFAGDSVPQHVQQWNVEKVELDKNKRFKDVEVVRYFWHSLEKELISRGYR
B2: 10xHis-mClover-Cdc73 W321A (natural protein, S. cerevisiae, UniProt Q06697 1-393, looked up)
chain: B1 chain with W321A

Key:
[1] = molecular target: T1, 10xHis-mRuby2-Spt6 (239-1451); experiment: native gel or EMSA
[2] = molecular target: T2, Spt6 (239-1451); experiment: fluorescence polarisation

Binder	Kd [1]	Kd [2]	binding result [1]
B1	~320 nM	770 nM	–
B2	–	–	binds
